Tested on: C[C@@H](O)[C@H]1C(=O)N2C(C(=O)O)=C([C@H]3CCCO3)S[C@H]12
Experiment: purified protein
Settings: two Zn2+ ions active site

Question: What does the source list for VIM-2 (Pseudomonas aeruginosa)?
Answer: Km: 5.11 µM; kcat: 36.7 s⁻¹; kcat/Km: 7.17e+06 M⁻¹ s⁻¹
